According to patent publication US20240115693A1 (CHILDREN S MEDICAL CENTER, published 2024):

Biological target: T1, recombinant human ACE2 (hACE2-Fc, InvivoGen) (human, UniProt Q9BYF1 18-740)
T1 construct: not shown: Fc part of a bought reagent
Test: ELISA, LuS-Tag coated, hACE2-Fc titrated

T1 sequence (Q9BYF1 18-740): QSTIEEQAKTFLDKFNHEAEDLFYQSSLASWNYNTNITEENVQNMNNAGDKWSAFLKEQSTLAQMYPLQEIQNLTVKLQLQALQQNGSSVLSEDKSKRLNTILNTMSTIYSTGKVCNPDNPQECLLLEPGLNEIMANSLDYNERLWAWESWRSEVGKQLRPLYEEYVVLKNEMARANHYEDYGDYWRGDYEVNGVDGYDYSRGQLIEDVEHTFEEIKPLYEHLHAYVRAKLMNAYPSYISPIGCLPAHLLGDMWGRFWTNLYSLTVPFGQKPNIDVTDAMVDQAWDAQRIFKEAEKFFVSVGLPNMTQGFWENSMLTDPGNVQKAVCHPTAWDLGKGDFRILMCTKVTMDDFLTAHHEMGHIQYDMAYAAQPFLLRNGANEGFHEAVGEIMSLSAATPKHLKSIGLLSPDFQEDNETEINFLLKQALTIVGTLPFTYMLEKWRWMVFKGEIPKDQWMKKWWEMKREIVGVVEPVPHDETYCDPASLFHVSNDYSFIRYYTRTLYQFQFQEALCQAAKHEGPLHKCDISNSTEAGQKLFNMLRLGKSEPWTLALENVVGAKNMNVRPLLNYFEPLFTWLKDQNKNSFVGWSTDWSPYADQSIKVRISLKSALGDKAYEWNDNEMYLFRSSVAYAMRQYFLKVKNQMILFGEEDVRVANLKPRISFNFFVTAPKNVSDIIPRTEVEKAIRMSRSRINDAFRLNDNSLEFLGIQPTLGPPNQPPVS

B1: Lumazine synthase expressing SpyTag (LuS-Tag) (other)
chain: AHIVMVDAYKPTKMQIYEGKLTAEGLRFGIVASRFNHALVDRLVEGAIDCIVRHGGREEDITLVRVPGSWEIPVAAGELARKENIDAVIAIGVLIRGATPHFDYIASEVSKGLANLSLELRKPITFGVITADTLEQAIERAGTKHGNKGWEAALSAIEMANLFKSLR
  binding result: no binding (tested: starting at 10 µg/ml)
